Measurements reported in PMC5650360, “Maslinic acid promotes autophagy by disrupting the interaction between Bcl2 and Beclin1 in rat pheochromocytoma PC12 cells” (Oncotarget, 2017).

Molecular target: T1, rat Beclin1 BH3 domain and Coiled Coil domain (residues 100-266) (rat, UniProt Q91XJ1 100-266)
T1 construct: Beclin1, rat, BH3 domain and coiled coil domain, residues 100-266; Cloned in a modified pET32 vector with a human rhinovirus 3C protease site and without thioredoxin; source: E. coli BL21 (DE3), purified (HisTrap HP, 3C cleavage, Superdex 75)
Assay: ITC; 200 μM Beclin1 injected (2 μl aliquots) into 200 μl of 20 μM Bcl2, 50 mM Tris pH 8.0, 150 mM NaCl, Auto-iTC200, without MA
Conditions: both partners purified

T1 sequence (Q91XJ1 100-266): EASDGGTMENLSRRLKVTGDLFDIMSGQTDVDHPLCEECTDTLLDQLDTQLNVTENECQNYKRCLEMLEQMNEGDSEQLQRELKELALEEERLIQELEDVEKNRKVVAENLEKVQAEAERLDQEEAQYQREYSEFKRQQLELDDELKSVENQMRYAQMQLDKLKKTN

Kd: ~7.3 µM
B1: BH3 motif containing region of rat Bcl2 (residues 1-156), un-tagged version (domain or fragment, UniProt P49950 1-156, looked up)
chain: MAQAGRTGYDNREIVMKYIHYKLSQRGYEWDTGDEDSAPLRAAPTPGIFSFQPESNRTPAVHRDTAARTSPLRPLVANAGPALSPVPPVVHLTLRRAGDDFSRRYRRDFAEMSSQLHLTPFTARGRFATVVEELFRDGVNWGRIVAFFEFGGVMCV
notes: Bcl2, rat, BH3 motif containing region, residues 1-156; Cloned as a GST fusion in a modified pET32 vector with a 3C protease site
